Values quoted from earlier work, collected in PMC10172704 (Poultry Science, 2023).
Like-named read-outs stand apart in the source and are kept apart here.

Experiments:
Staphylococcus aureus = settings: ref Wang et al., 2020
Escherichia coli = settings: ref Wang et al., 2020

- MIC (Staphylococcus aureus): 260 mg/mL
- MIC (Escherichia coli; after proteolytic digestion by pepsin): 65 mg/mL
- MIC (Escherichia coli): 130 mg/mL
B1: Milk lactoferrin: milk lactoferrin; literature MICs, also after proteolytic digestion by pepsin (protein, UniProt P02788 20-710, looked up)
Lactotransferrin: GRRRSVQWCAVSQPEATKCFQWQRNMRKVRGPPVSCIKRDSPIQCIQAIAENRADAVTLDGGFIYEAGLAPYKLRPVAAEVYGTERQPRTHYYAVAVVKKGGSFQLNELQGLKSCHTGLRRTAGWNVPIGTLRPFLNWTGPPEPIEAAVARFFSASCVPGADKGQFPNLCRLCAGTGENKCAFSSQEPYFSYSGAFKCLRDGAGDVAFIRESTVFEDLSDEAERDEYELLCPDNTRKPVDKFKDCHLARVPSHAVVARSVNGKEDAIWNLLRQAQEKFGKDKSPKFQLFGSPSGQKDLLFKDSAIGFSRVPPRIDSGLYLGSGYFTAIQNLRKSEEEVAARRARVVWCAVGEQELRKCNQWSGLSEGSVTCSSASTTEDCIALVLKGEADAMSLDGGYVYTAGKCGLVPVLAENYKSQQSSDPDPNCVDRPVEGYLAVAVVRRSDTSLTWNSVKGKKSCHTAVDRTAGWNIPMGLLFNQTGSCKFDEYFSQSCAPGSDPRSNLCALCIGDEQGENKCVPNSNERYYGYTGAFRCLAENAGDVAFVKDVTVLQNTDGNNNEAWAKDLKLADFALLCLDGKRKPVTEARSCHLAMAPNHAVVSRMDKVERLKQVLLHQQAKFGRNGSDCPDKFCLFQSETKNLLFNDNTECLARLHGKTTYEKYLGPQYVAGITNLKKCSTSPLLEACEFLRK
